Series [1] addresses T1, Myc-spy Δ216 (deletion of residues 1-216, the N-terminal peptide and TPRs 1-5) (Arabidopsis thaliana, UniProt Q96301 217-914).
T1 construct: source: N. benthamiana, transient expression by agroinfiltration, in protein extract
T1 sequence (looked up): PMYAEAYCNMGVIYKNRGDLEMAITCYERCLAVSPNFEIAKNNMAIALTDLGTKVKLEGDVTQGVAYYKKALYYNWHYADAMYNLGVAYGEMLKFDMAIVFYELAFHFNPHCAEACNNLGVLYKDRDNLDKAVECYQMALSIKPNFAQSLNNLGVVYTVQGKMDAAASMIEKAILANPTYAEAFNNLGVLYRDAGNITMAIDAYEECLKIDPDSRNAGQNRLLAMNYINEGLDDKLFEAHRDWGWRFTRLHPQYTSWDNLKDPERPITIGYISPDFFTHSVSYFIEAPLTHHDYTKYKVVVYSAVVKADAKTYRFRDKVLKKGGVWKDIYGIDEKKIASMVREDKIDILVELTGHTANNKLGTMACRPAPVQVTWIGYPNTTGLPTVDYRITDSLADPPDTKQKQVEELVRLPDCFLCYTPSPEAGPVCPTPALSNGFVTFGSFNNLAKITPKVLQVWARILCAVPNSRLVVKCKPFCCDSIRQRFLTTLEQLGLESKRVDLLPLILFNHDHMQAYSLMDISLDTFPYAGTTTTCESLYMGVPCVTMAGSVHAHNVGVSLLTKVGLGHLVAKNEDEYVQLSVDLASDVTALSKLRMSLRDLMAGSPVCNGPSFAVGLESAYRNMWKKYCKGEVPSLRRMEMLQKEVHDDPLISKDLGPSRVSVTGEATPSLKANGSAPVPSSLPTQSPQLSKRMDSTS
The series is described as follows: co-IP; FLAG-RGA co-expressed with Myc-SPY, Myc-spy mutants or Myc-GUS in N. benthamiana; IP with anti-cMyc agarose, blots with αMyc and αFLAG; co-IP'ed FLAG-RGA normalised to the IP'ed Myc protein, WT SPY set as 1. The following applies: partners not purified.

Series [2] deals with the molecule itself. The series is described as follows: cryo-EM 2D class averages; apo SPY, flash-frozen solution; tetramer formed by side-by-side stacking of two SPY dimers.
Series [3] concerns the molecule itself. The series is described as follows: cryo-EM structure; apo SPY, ~0.8 mg/mL, 25 mM HEPES pH 7.5, 150 mM NaCl, 2 mM DTT; three conformations of the dimer at 3.6 to 3.9 Å.

B1: FLAG-RGA (35S:FLAG-RGA, pEG100-3xFR; contains a 6xHis-3xFLAG tag) (natural protein, Arabidopsis, UniProt Q9SLH3 1-587, looked up)
chain: MKRDHHQFQGRLSNHGTSSSSSSISKDKMMMVKKEEDGGGNMDDELLAVLGYKVRSSEMAEVALKLEQLETMMSNVQEDGLSHLATDTVHYNPSELYSWLDNMLSELNPPPLPASSNGLDPVLPSPEICGFPASDYDLKVIPGNAIYQFPAIDSSSSSNNQNKRLKSCSSPDSMVTSTSTGTQIGGVIGTTVTTTTTTTTAAGESTRSVILVDSQENGVRLVHALMACAEAIQQNNLTLAEALVKQIGCLAVSQAGAMRKVATYFAEALARRIYRLSPPQNQIDHCLSDTLQMHFYETCPYLKFAHFTANQAILEAFEGKKRVHVIDFSMNQGLQWPALMQALALREGGPPTFRLTGIGPPAPDNSDHLHEVGCKLAQLAEAIHVEFEYRGFVANSLADLDASMLELRPSDTEAVAVNSVFELHKLLGRPGGIEKVLGVVKQIKPVIFTVVEQESNHNGPVFLDRFTESLHYYSTLFDSLEGVPNSQDKVMSEVYLGKQICNLVACEGPDRVERHETLSQWGNRFGSSGLAPAHLGSNAFKQASMLLSVFNSGQGYRVEESNGCLMLGWHTRPLITTSAWKLSTAAY
notes: RGA, an Arabidopsis DELLA protein; called the full-length RGA substrate in planta; RGA is O-fucosylated by the co-expressed SPY to differing degrees; also called His-FLAG-RGA; source: N. benthamiana, transient expression by agroinfiltration, in protein extract
On to B1, for which, in series [1], the “fold change of co-IP'ed FLAG-RGA against WT SPY” value was 6.3 fold.

B2: Recombinant full-length Arabidopsis thaliana SPINDLY (SPY-WT-TEV-His10-Strep) (enzyme, UniProt Q96301 1-914, looked up)
chain: MVGLEDDTERERSPVVENGFSNGSRSSSSSAGVLSPSRKVTQGNDTLSYANILRARNKFADALALYEAMLEKDSKNVEAHIGKGICLQTQNKGNLAFDCFSEAIRLDPHNACALTHCGILHKEEGRLVEAAESYQKALMADASYKPAAECLAIVLTDLGTSLKLAGNTQEGIQKYYEALKIDPHYAPAYYNLGVVYSEMMQYDNALSCYEKAALERPMYAEAYCNMGVIYKNRGDLEMAITCYERCLAVSPNFEIAKNNMAIALTDLGTKVKLEGDVTQGVAYYKKALYYNWHYADAMYNLGVAYGEMLKFDMAIVFYELAFHFNPHCAEACNNLGVLYKDRDNLDKAVECYQMALSIKPNFAQSLNNLGVVYTVQGKMDAAASMIEKAILANPTYAEAFNNLGVLYRDAGNITMAIDAYEECLKIDPDSRNAGQNRLLAMNYINEGLDDKLFEAHRDWGWRFTRLHPQYTSWDNLKDPERPITIGYISPDFFTHSVSYFIEAPLTHHDYTKYKVVVYSAVVKADAKTYRFRDKVLKKGGVWKDIYGIDEKKIASMVREDKIDILVELTGHTANNKLGTMACRPAPVQVTWIGYPNTTGLPTVDYRITDSLADPPDTKQKQVEELVRLPDCFLCYTPSPEAGPVCPTPALSNGFVTFGSFNNLAKITPKVLQVWARILCAVPNSRLVVKCKPFCCDSIRQRFLTTLEQLGLESKRVDLLPLILFNHDHMQAYSLMDISLDTFPYAGTTTTCESLYMGVPCVTMAGSVHAHNVGVSLLTKVGLGHLVAKNEDEYVQLSVDLASDVTALSKLRMSLRDLMAGSPVCNGPSFAVGLESAYRNMWKKYCKGEVPSLRRMEMLQKEVHDDPLISKDLGPSRVSVTGEATPSLKANGSAPVPSSLPTQSPQLSKRMDSTS
modifications: fully auto-O-fucosylated (sites not mapped for the insect-cell protein)
notes: SPINDLY (SPY), Arabidopsis thaliana, full length (101.4 kDa), UniProt Q96301; The tag end is read from the construct name SPY-WT-TEV-His10-Strep; A TEV site lies between SPY and the tags; no cleavage is described; also called WT SPY; apo SPY; source: Trichoplusia ni (High Five) insect cells, baculovirus, purified (Talon, Strep-Tactin, SEC)
One may read the stoichiometry N as the number of molecules, sites or subunits per partner or assembly. Take B2: the “stoichiometry N” value in series [2] stood at 4; in series [3] it was 2.

Values taken from PMC10027727, “Structure and dynamics of the Arabidopsis O-fucosyltransferase SPINDLY” (Nature Communications, 2023).
